We go through eleven sequences from the DeepSol protein solubility set.

A short description of the data set: soluble on expression in E. coli; label from the status in PepcDB or PDB records.
With “MGSDKIHHHHHHETNNLKTKEDMYKYFGTSKSMLTHVYSYMPQGYQLFATSGGIFTEDRYSMRDCASDDGEFGAYADNIQNTNNGNWSPIKTYDDSWTLYRGIRAANSFIAEIAQVDFTRYEHDGQYTNWMKQLKYFPYEARVLRAHYFFELARRYGDIAMPLEVLTEEEANTIGKTPFSEVISFIVSECDDAANNLPDSYVNEPGAEIGRVTKGFAMAVKSKALLYAASKLHNPSMDTELWKKSAKAAIDIINTGLYSLDPQESANNLDSKEVVLMRINGDDSDFEMFNLPLRMTAGTRTSSLIPYSNYPSQNLVDAFETVNGYKVTLENTGWVCEDPAFDPQSPYENRDKRFYRAILANGMSFKDYTIETFKGGADDGIVSQGGSPTGYFLRKYIQEATSFEPGKEAVSKHHWVIYRYAETLLTYAESMVNAFNDVNYTDETYKYSALWAINEVRKNADMPLIPSMGKDEFMERLYNEWRVEFAFEDHRFWDVRRWKIADTTQRELYGVKIEKQADGTFNFYKNLYETRNWRDCMYLYPIPQSELYKNTNLNPQNTGW”, the “soluble on expression in E. coli” value is listed as “not soluble”.

For “MDSENKTSIAIGCKVCNKYKVTKLLGGGSYGCVHEVIELKTGDRYAMKSEYSSMKKPILLNELKVMKAIYTFSSQHVLKVRDMGVHGSTKFIIMQMLEKNMDEVFELLGGSMTLNTAVATSYQCLEGLEFMHWAGFLHRDIKPNNYCLDANSGQGLRTIYIIDYGICKRFVDNNNVIRQPRKITKFRGTLDFAPIVSHELREHSRGSDLES”, the “soluble on expression in E. coli” value is “not soluble”.

With “MVIEESGNESEASVAPKRRRAPKGDMRRKALLDAATVVFARDGYSSASMREVALLAGITTVGLLHHFPNKEALLSALLERRDQRVTSRFQDMVTELTLDGFLKFLKLSMSFSVENADECQAALLMNTESLSPSHPACSWHRERFQMTHEHARGHLNALIEAGEVRADINVKALAQEIFSVMDGLQIQWLRSPDDVDVMAVFEVYVQRLGRDIKAHP”, the “soluble on expression in E. coli” value is given as “not soluble”.

Turning to “MSTSHDRAVLNQILNPLMPTSDSGIAEIHLESDSLEHPGYELSLQLEREGVALAEGVRLDEAIEKFTKALEVCPKNPSAYNNRAQAYRLQNKPEKALDDLNEALSLAGPKTKTACQAYVQRASIYRLRGDDDKARTDFASAAELGSSFAKMQLVALNPYAAMCNKMLAEVFEKAKTGED”, the “soluble on expression in E. coli” value is listed as “soluble”.

As for “VRFVSELCALHGTDPVPMALIMEPVSKWSPSQVVDWMKGLDDCLQQYIKNFEREKISGDQLLRITHQELEDLGVSRIGHQELILEAVDLLCALNYGLETENLKTLSHKLNASAKNLQNFITGRRRSGHYDGRTSRKLPNDFLTSVVDLIGAAKSLLAWLDRSPFAAVTDYSVTRNNVIQLCLELTTIVQQDCTVYETENKILHVCKTLSGVCDHIISLSSDPLVSQSAHLEVIQLANIKPSEGLGMYIKSTYDGLHVITGTTENSPADRCKKIHAGDEVIQVNHQTVVGWQLKNLVNALREDPSGVILTLKKRPQSMLTSAPALLKNMRWKPLALQPLIPRSPTSSVATPSSTISTPTKRDSSALQDLYIPPPPAEPYIPRDEKGNLPCEDLRGHMVGKPVHKGSESPNSFLDQEYRKRFNIVEEDTVLYCYEYEKGRSSSQGRRESTPTYGKLRPISMPVEYNWVGDYEDPNKMKRDSRRENSLLRYMSNEKIAQEEYMFQRNSKKDTGKKSKKKGDKSNSPTHYSLLPSLQMDALRQDIMGTPVPETTLYHTFQQSSLQHKSKKKNKGPIAGKSKRRISCKDLGRGDCEGWLWKKKDAKSYFSQKWKKYWFVLKDASLYWYINEEDEKAEGFISLPEFKIDRASECRKKYAFKACHPKIKSFYFAAEHLDDMNRWLNRINMLTAGYAERERIKQEQDYWSESDKEEADTPSTPKQDSPPPPYDTYPRPPSMSCASPYVEAKHSRLSSTETSQSQSSHEEFRQEVTGSSAVSPIRKTASQRRSWQDLIETPLTSSGLHYLQTLPLEDSVFSDSAAISPEHRRQSTLPTQKCHLQDHYGPYPLAESERMQVLNGNGGKPRSFTLPRDSGFNHCCLMLQLVPVTHRMTCNPQRWRKRRRRRRRKGRQQGKT”, the “soluble on expression in E. coli” value is “soluble”.

Take “MSLRVIDSHTAGEPTRVVLDGGPDLGSGTLAERAARLEAEHLDFCASVMLEPRGHDAIIGALLVPPSDPACAAGVIYFNNLQNLGMCGHATIGLGVTLAHLGRIRPGRHRFETPVGVVEIDLIDANTVSVVNIESYRLAKDVTVEVEGVGPVTGDVAWGGNWFFMVKNSPIALTGANIRPLTDLTLKIRTALEKAGVTGKDGAWIDHIELFGPAEDPAAQSRNFVLCPGGAYDRSPCGTGCSAKMACLAADGALAPGQDYLQESVIGSTYKISYQPGPGGGVIPTITGQAFVTSDATLIFNPADPYRSGIRLEGHHHHHH”: the “soluble on expression in E. coli” value was “soluble”.

On to “MMVTFGEPGVYSSYSNPLPSTDTWEDCLEYCLGLSTCVAVYNNNCQMFEIGQISTATSTSETKIAFKFLADNATCPIQEPTSLQGHYFTNTTYQPYTVSYSAPTWTFANSTQLECPTNYALFVRDLGPWCMKVIQHYACCNKTIAATMCNSYGAQLSGLDSTAEYDFMLAGSWPIFKNVTTNKIGSTQYYATGVWVDGARTLACMGNTTYPCNTTQAFSFTDPTLSSPPGGYLWLPGRPDGGDAPADGIVLNLYTTELYGMEDTPSSEPVSGVYCWMGYLCGAVPT”, for which the “soluble on expression in E. coli” value is reported as “not soluble”.

Turning to “MAEVHVRELKGWEEMEEVVALQREVWGRAESDLVPRGLLVAVQDEGGLVAGAFAEGRMVGFVFGFPTKDPALHHSHMLGVLEAYRGTGAALLLKRFQRDWCLARGVRRVVWTFDPMRGVNANFNLRKLGATAKTYLPDHYGPMSGINAGAPSDRLLAEWDL”, the “soluble on expression in E. coli” value is on record as “not soluble”.

Take “MSDQIADARLVPLGAILTRMSTVVDMPETRGHLISAITTASDPGEILYLSSRADFSEGGSIRGGVPIIAPWFAKNLGHDELQHGWARRVEWETIPTNGGIDARTSHDDWDLRLGTQVLPHGFAMMLKARNASPLRRDFQSAFHPYFRVADVRTTTVTVGDQEFRFDGTAVDQAVPLPEWTPLVIKDSQRTITVTYQGADHAVVWNPGSELAAQMTDVGEGEWTEFVCVEPALLGDHAQGISVPPWDWVEIGMTVKVTPAQ”: the “soluble on expression in E. coli” value is recorded as “not soluble”.

For “SAPAPPSGWSQVFLDDFDGAAGSSVNTANWQFDTGTSYPGGAGNWGTGEVESMTSSTSNVSLDGNGDLLITPRRDASGNWTSGRIETTRTDFQPPAGGKLRVEARLQMPNVTGDAAAGYWPAFWMLGAPFRGNYQNWPGVGELDIMENVQGLNKTWATMHCGTSPGGPCNETSGIGNSTACPNTTCQSGFHTYTMEWDRSVSPEAIRFSVDGVTYQTVTANQMDAATWTNATNHGFFVILNVAMGGGFPGAFGGGPTGATEPGHPMVVDYVQVTSLSPGL”, the “soluble on expression in E. coli” value was “soluble”.

On to “MGSDKIHHHHHHMTTYSPSQENYRELAHLLARFTSLTQIKTIFYDFTGILLKDDFVYINHSAIEDNLAQLTFSDYAVFPVSRNIQMWGAILCESVNVSKKRLFLSRSYLENLMTQIFDEDTLGKVSVWEPLTSDQVGQINNLHALFHPTGDTDPLQAVLAPNAVIAGHTIDNDEAFRSISLAIDYIQKNIQRPISLNEVAQRAYLSPSYLSRLFKKYLHVNFIEYVNNQKIALAQEKLSLTLTPINQISNQIGFTQTSYFTKIFKKKTGITPSEFRQRNHTIQKIYTIPRELNWDTNDSVIDVTKNYFKSHHITYHTDSEEGATYVNSIGELNDAKGNRGWIYTVDGQQPTQSADEIATHDKSVIQWVYTDYSN”, for which the “soluble on expression in E. coli” value is reported as “not soluble”.
